{"source": "patent US5763284A", "about": "“Methods for peptide synthesis and purification” (Dade International Inc., priority 1995, dated 1998)", "molecules": {"B1": {"name": "PenI: penI repressor protein of Bacillus licheniformis without fusion peptide; negative control (protein, UniProt P06555 1-128, looked up)", "Penicillinase repressor": "MKKIPQISDAELEVMKVIWKHSSINTNEVIKELSKTSTWSPKTIQTMLLRLIKKGALNHHKEGRVFVYTPNIDESDYIEVKSHSFLNRFYNGTLNSMVLNFLENDQLSGEEINELYQILEEHKNRKKE"}}, "key": {"[1]": {"test_system": "TA1 antibody", "experiment": "BIAcore surface plasmon resonance binding of PenI:C9 muteins to immobilized TA1", "set-up": "species or system mouse", "details": "30 μg/mL injected; relative response of wild type PenI:C9 set to 100%", "text": "In order to analyze the different binding of the different PenI:C9 muteins to the TA1 antibody (TA1 was raised from a mouse that had been immunized with F1.2-C9 KLH by standard procedures; F1.2-C9 is the purified factor Xa cleavage product of prothrombin), a biosensor system using surface plasmon resonance detection (BIAcore, Pharmacia Biosensor) has been used. This system records the binding of the antigen to the immobilized TA1 in real time.\nTA1 has been chemically immobilized onto the carboxymethylated dextran matrix of the sensor chip (CM5) using the amine coupling kit and the method provided by the manufacturer (Pharmacia Biosensor). For this purpose TA1 was diluted to 57 μg/mL in 10 mM Na-acetate buffer pH4. After activation of the sensor chip with 30 μl of a 1:1 mixture of 11.5 mg/mL N-hydroxysuccinimide (NHS) and 75 mg/ml N-ethyl-N'-(dimethylaminopropyl) carbodiimide (EDC) 5 μL of the TA1 solution was injected at a flow rate of 3 μL/min. […]\nEach PenI:C9 and the native PenI protein was injected according to this program and a relative response in RU which represent the amount of penI:C9 mutein bound, was calculated by subtracting the RU of report point 1. from report point 2. Percent of binding was then calculated by setting the relative response of the wild type to 100%. […]"}, "[2]": {"test_system": "D011 cells", "experiment": "Loading of A20 APC and activation of D011 T cells, IL-2 release ELISA", "format": "cell-based, murine", "details": "DO11 and A20 cells, 24 hours", "procedure": "The efficacy of a fusion polypeptide of the invention to load APCs and activate T cells was tested. A penI:Ova fusion polypeptide (i.e., a fusion polypeptide containing the penI protein linked to an Ova target peptide) was employed as well as other materials. Three independent experiments were performed utilizing A20 APC and the D011 T cell […] cell line. D011 cells are specifically responsive to Ova loaded major histocompability complex class II (MHCII) molecules presented by A20 APCs. A20 cells were loaded with 5 μg purified penI:Ova fusion polypeptide or 5 μg synthetic Ova peptide (positive control synthesized by Mimetics, Chiron Corp.) for 1 hour. 1×10^5 D011 cells were added and incubated with the loaded A20 cells for 24 hours. The degree of activation of D011 cells was determined by the release of Interleukin 2 (IL-2) into the culture medium. After 24 hours of incubation supernatants were collected and analyzed in an ELISA format for IL-2 (using two anti-IL2 antibodies from Pharmacia).\nThe following Table summarizes the results of the three experiments and includes several negative controls. One of these controls is a PenI:Ova fusion protein containing the hen egg lysozyme (HEL) peptide preceded by the Factor Xa cleavage recognition site IEGRNLCNIPCSALLSS (SEQ ID NO: 55) and therefore should not stimulate D011 cells."}}}
{"molecule": "B1", "values": [{"measurement": "Percent of binding to TA1", "setting": "[1]", "value": "< 5", "unit": "%"}, {"measurement": "IL-2 release", "setting": "[2]; Experiment 1", "value": 0, "unit": "pg/mL"}, {"measurement": "IL-2 release", "setting": "[2]; Experiment 2", "value": 0, "unit": "pg/mL"}, {"measurement": "IL-2 release", "setting": "[2]; Experiment 3", "value": 0, "unit": "pg/mL"}]}
